The supplement of paper PMC10567573

B1: AUP1 (parent)
chain: FCASTRLPPTPLLLFPEEEATNGR

Variants of: B1
Experiment: protein stability index of a GFP-peptide fusion (GPS, HEK-293T) (PSI 1-6); higher = more stable
Conditions: c terminus: a fixed tail appended
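Also: lentivirally expressed fusions sorted by FACS into six bins by GFP to DsRed ratio, PSI derived from sequencing read proportions per bin multiplied by bin number.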

Row | Variant | protein stability index
1 | FCANTRLPPTPLLLFPEEEATNGR [S4N] | 2.94
2 | FCAWTRLPPTPLLLFPEEEATNGR [S4W] | 3.38
3 | FCAITRLPPTPLLLFPEEEATNGR [S4I] | 2.49
4 | FCAHTRLPPTPLLLFPEEEATNGR [S4H] | 3.05
5 | FCAYTRLPPTPLLLFPEEEATNGR [S4Y] | 2.28
6 | FCACTRLPPTPLLLFPEEEATNGR [S4C] | 2.54
7 | FCAKTRLPPTPLLLFPEEEATNGR [S4K] | 3.01
8 | FCAFTRLPPTPLLLFPEEEATNGR [S4F] | 2.54
9 | FCAVTRLPPTPLLLFPEEEATNGR [S4V] | 3.08
10 | FCATTRLPPTPLLLFPEEEATNGR [S4T] | 2.76
11 | FCAMTRLPPTPLLLFPEEEATNGR [S4M] | 2.59
12 | FCARTRLPPTPLLLFPEEEATNGR [S4R] | 3.03
13 | FCAATRLPPTPLLLFPEEEATNGR [S4A] | 2.8
14 | FCAQTRLPPTPLLLFPEEEATNGR [S4Q] | 3.36
15 | FCAETRLPPTPLLLFPEEEATNGR [S4E] | 3.52
16 | FCALTRLPPTPLLLFPEEEATNGR [S4L] | 2.85
17 | FCADTRLPPTPLLLFPEEEATNGR [S4D] | 3.6
18 | FCAGTRLPPTPLLLFPEEEATNGR [S4G] | 2.85
19 | FLASTRLPPTPLLLFPEEEATNGR [C2L] | 3.39
20 | FVASTRLPPTPLLLFPEEEATNGR [C2V] | 1.55
21 | FEASTRLPPTPLLLFPEEEATNGR [C2E] | 4.91
22 | FQASTRLPPTPLLLFPEEEATNGR [C2Q] | 3.58
23 | FMASTRLPPTPLLLFPEEEATNGR [C2M] | 3.73
24 | FSASTRLPPTPLLLFPEEEATNGR [C2S] | 3.8

Row | Variant | protein stability index
25 | FAASTRLPPTPLLLFPEEEATNGR [C2A] | 3.42
26 | FFASTRLPPTPLLLFPEEEATNGR [C2F] | 3.1
27 | FNASTRLPPTPLLLFPEEEATNGR [C2N] | 3.82
28 | FPASTRLPPTPLLLFPEEEATNGR [C2P] | 3.92
29 | FIASTRLPPTPLLLFPEEEATNGR [C2I] | 2.62
30 | FHASTRLPPTPLLLFPEEEATNGR [C2H] | 2.17
31 | FWASTRLPPTPLLLFPEEEATNGR [C2W] | 2.76
32 | FRASTRLPPTPLLLFPEEEATNGR [C2R] | 3.81
33 | FYASTRLPPTPLLLFPEEEATNGR [C2Y] | 3.31
34 | FDASTRLPPTPLLLFPEEEATNGR [C2D] | 4.81
35 | FTASTRLPPTPLLLFPEEEATNGR [C2T] | 3.42
36 | FGASTRLPPTPLLLFPEEEATNGR [C2G] | 4.33
37 | FKASTRLPPTPLLLFPEEEATNGR [C2K] | 4.06
38 | FCHSTRLPPTPLLLFPEEEATNGR [A3H] | 2.49
39 | FCKSTRLPPTPLLLFPEEEATNGR [A3K] | 2.5
40 | FCMSTRLPPTPLLLFPEEEATNGR [A3M] | 2.88
41 | FCESTRLPPTPLLLFPEEEATNGR [A3E] | 3.67
42 | FCWSTRLPPTPLLLFPEEEATNGR [A3W] | 1.89
43 | FCLSTRLPPTPLLLFPEEEATNGR [A3L] | 3.27
44 | FCDSTRLPPTPLLLFPEEEATNGR [A3D] | 3.33
45 | FCGSTRLPPTPLLLFPEEEATNGR [A3G] | 2.36
46 | FCQSTRLPPTPLLLFPEEEATNGR [A3Q] | 2.88
47 | FCPSTRLPPTPLLLFPEEEATNGR [A3P] | 2.25
48 | FCRSTRLPPTPLLLFPEEEATNGR [A3R] | 2.23

Row | Variant | protein stability index
49 | FCCSTRLPPTPLLLFPEEEATNGR [A3C] | 2.78
50 | FCYSTRLPPTPLLLFPEEEATNGR [A3Y] | 1.7
51 | FCSSTRLPPTPLLLFPEEEATNGR [A3S] | 2.44
52 | FCVSTRLPPTPLLLFPEEEATNGR [A3V] | 2.76
53 | FCISTRLPPTPLLLFPEEEATNGR [A3I] | 2.46
54 | FCNSTRLPPTPLLLFPEEEATNGR [A3N] | 2.62
55 | FCTSTRLPPTPLLLFPEEEATNGR [A3T] | 2.84
56 | FCFSTRLPPTPLLLFPEEEATNGR [A3F] | 2.45
57 | FCASWRLPPTPLLLFPEEEATNGR [T5W] | 2.49
58 | FCASKRLPPTPLLLFPEEEATNGR [T5K] | 2.64
59 | FCASRRLPPTPLLLFPEEEATNGR [T5R] | 1.99
60 | FCASERLPPTPLLLFPEEEATNGR [T5E] | 3.77
61 | FCASFRLPPTPLLLFPEEEATNGR [T5F] | 1.81
62 | FCASCRLPPTPLLLFPEEEATNGR [T5C] | 1.86
63 | FCASMRLPPTPLLLFPEEEATNGR [T5M] | 2.96
64 | FCASVRLPPTPLLLFPEEEATNGR [T5V] | 2.83
65 | FCASSRLPPTPLLLFPEEEATNGR [T5S] | 2.64
66 | FCASGRLPPTPLLLFPEEEATNGR [T5G] | 2.7
67 | FCASNRLPPTPLLLFPEEEATNGR [T5N] | 3.05
68 | FCASIRLPPTPLLLFPEEEATNGR [T5I] | 2.22
69 | FCASDRLPPTPLLLFPEEEATNGR [T5D] | 3.44
70 | FCASQRLPPTPLLLFPEEEATNGR [T5Q] | 2.86
71 | FCASARLPPTPLLLFPEEEATNGR [T5A] | 3.19
72 | FCASHRLPPTPLLLFPEEEATNGR [T5H] | 2.66

Row | Variant | protein stability index
73 | FCASYRLPPTPLLLFPEEEATNGR [T5Y] | 2.27
74 | FCASPRLPPTPLLLFPEEEATNGR [T5P] | 3.16
75 | FCASLRLPPTPLLLFPEEEATNGR [T5L] | 2.11
76 | KCASTRLPPTPLLLFPEEEATNGR [F1K] | 4.17
77 | DCASTRLPPTPLLLFPEEEATNGR [F1D] | 4.35
78 | ECASTRLPPTPLLLFPEEEATNGR [F1E] | 4.65
79 | NCASTRLPPTPLLLFPEEEATNGR [F1N] | 4.16
80 | GCASTRLPPTPLLLFPEEEATNGR [F1G] | 4.27
81 | PCASTRLPPTPLLLFPEEEATNGR [F1P] | 4.53
82 | RCASTRLPPTPLLLFPEEEATNGR [F1R] | 4.24
83 | TCASTRLPPTPLLLFPEEEATNGR [F1T] | 4.6
84 | YCASTRLPPTPLLLFPEEEATNGR [F1Y] | 3
85 | CCASTRLPPTPLLLFPEEEATNGR [F1C] | 2.6
86 | WCASTRLPPTPLLLFPEEEATNGR [F1W] | 3.74
87 | MCASTRLPPTPLLLFPEEEATNGR [F1M] | 4.27
88 | SCASTRLPPTPLLLFPEEEATNGR [F1S] | 4.3
89 | VCASTRLPPTPLLLFPEEEATNGR [F1V] | 4.27
90 | ACASTRLPPTPLLLFPEEEATNGR [F1A] | 4.17
91 | HCASTRLPPTPLLLFPEEEATNGR [F1H] | 4.28
92 | ICASTRLPPTPLLLFPEEEATNGR [F1I] | 4.27
93 | QCASTRLPPTPLLLFPEEEATNGR [F1Q] | 4.54
94 | LCASTRLPPTPLLLFPEEEATNGR [F1L] | 3.9
